Data taken from the NTF2 design screens of Basanta et al. (2020).

Assay: protease stability score; higher = more stable; yeast display proteolysis, trypsin and chymotrypsin;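 further: log10 excess protease needed over predicted unfolded state with 0 meaning unfolded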
Sequence “DEEELMNRFWETMERIMEKGDEDTMRKQVDPNAKAEYGDKTVHGRHQFAKFWIEQARRADHIKFDIKSIDVKPPTIVVRLTVKFNVNGTNHKRDISIVFKVHNGRIVLHNAHEN” has a protease stability score of 1.02.
Sequence “DEEELQEMIHEFVKALETGNPDDIDKNADEDAKAVYGDKEVEGREQIKHQIKQLHDAIDHLEVKRVSFDNGRAHIHVEMTVNGERFTAKITVEAHNGKIKDVQFDPRLRNAYES” has a protease stability score of 0.81.
For “DEEELQRWAERIVEAFTHGDPQRLSKNVDKNVKVTVGEHEYHGKEELNKILEEIRRQADRIHYKSVDVQGDRANFDMVMNVNGKNVKFTLIVRFENGHAKHLEFDPRMWRVVQR”, the protease stability score was 1.53.
In the case of “DEEELQSVKEYIENLQTNNESRLRKYADPNAQITVGDKVIHGMEDFQRQMEEDRRHSRISFKSVEFRYHDGKAVVHAEFTHVDNGQPDEVRVDYRFKLHNGRIKSQNVREVK”, the protease stability score is reported as -0.331.
Sequence “DEEELRELVRNIIEQLQQNNEEELKKQMDKDARMQYGDKEWHGREDIVRHLASVAHQVDHLELESVSVDGNKAHFTFRRQVNGHDETLRAELVVRNGRVVSIKYRHN” has a protease stability score of -0.021.
“DEEELREMVKKWLEVVQKGDQKKAVEMYKPNGEWRMIDEEKQGQEDVEKMLRKAQEDGVEFQTRKAKVEGNKAEMHYDMKLGDETVTFTVQLVAHGGRIDRVKVKVTEEAKKLLTKG” showed a protease stability score of 0.221.
For “DEEELRQAMKVVKTNDPDNLRKLMDENVRVQVGNKVYHGREEAEKWLERMRKQIDHVNVRRVQIQGDRIVVEMEVTVNGKTIEATLHAKLHNGSLKSLRVEATSEKEKEKIEEANK”, the protease stability score was 0.93.
For “DEEELSEVANNMERILREGDPDKARSLADENAKAHIGDKKYHGREQIREMIHRMRTRADKVTVNELRITNGVIKIVAEFNVNGRNIEIVVHIRVNNGKISEVNFEVRDPDQYKEIYS”, the protease stability score was 0.386.
With “DEEELSHFLDVVRTGDFHEMAKMVDPNARINVGDKRVHGREDAETLIKEIQKRADHVEVDSYSIEGDKVRVLMRVNVNGVEVVFILVVQLNNGRIVHRQVDVTNEELEKQVRHANS” the protease stability score was 0.659.
In the case of “DEEELSQVVRKVIEALRTGDPDLFQKLADPNAKASVGDKSVHGKEEISSLQKEFSDRVDEIKFTHVSFENGHATIHMELNHNGRHDKVVVKIDVENGKIKHVQIEKS”, the protease stability score is reported as 0.741.
“DEEELTKTLHEIIKDFVHGDSNQLRENADPNVKLKVGDKEIRGHHEVHKWAKKLRERVDSIKVKDYSATGEKAVAHVIADINGENVEITIVIQAHNGRIKLITVDPEDDKKMKQ” gave a protease stability score of 0.279.
For “DEEELTTLAEQLMDIIEQGDKKRFHQLADPNARMDVGDKRYHGREEMAKNLYDLVERVDTISVDSLSARNGRIKIDMRFKVNGQDVKQILVVRADNGTITRVSIETS”, the protease stability score was 0.849.
With “DEEEMDRFIKHLERNDEDRWVQMADPNVKVRIGDNTLRGREQLKKWFHRFRKRVDTYSIDSYTVHGEKIKVRAKFQVDGRNVQFSFVVVIKNGRIKSATYEARNEEDQEQDKRDLE” the protease stability score was 1.5.
Work on “DEEEMEKVLQVQSTGNPDRYRKLADKDVRLVVGDTEVQGKEKVVKKVHDFHKQIDHQDYESMSAEGNRIDVLLRNVVNGQELVLRVVVRVHNGRIKEVELRARSEEEQSRFDHAWK” yielded a protease stability score of 0.093.
For “DEEEMKEMLEKWHEAVQKGDSDKVKKLYKPNVEWEDSDTQKQGVEVVIKMLQEVQKKGLEFQVRKAKVEGDTAQAVYDLRFGDKTVTFTVELQAQGGRVDKVRVELNEEAKKVLTKG”, the protease stability score was 1.19.
“DEEENKDVATTFVKAVEQGDPDKISHLFDENARAQIGDKEYHGREDLMRMAQEWRDRYDHIEIQDYKVHGNKVTAHFVMQHNGKRERRVMTAEWRNGQIHSMQVHSS” showed a protease stability score of 1.37.
For “DEEENKHLISLFERNNWRDMAEMADKDVKAQYGDSTIHGREQVHEVLTQLQKRADHLEIKDYNVDGNKVVVDQVINVNGVTIRAKVLMEVHNGRIKQMHVQATDNEEKKKLDKVLS”, the protease stability score was -0.466.
In the case of “DEEENNKIARRAAKAFSTGDPDEFHKLVDPNARVRIGEKEVHGREDVHRMVQELRERADHIQVTSFTFQGNKITLDLSLDVNGHTVKLNVEITIHNGHVVDINIDPEQVKSLHG”, the protease stability score is reported as 0.647.
In the case of “DEEENQELAEKFVRAIQEGDPDQITDLLDENAKATVGDRTYHGRSQIADYIHEMLKKADHFEVQSVDVQGNHIVIHVQMDINGKQVHMIIKMELSNGKVKHLEIEHK”, the protease stability score is reported as 1.75.
With “DEEENTKVMERFLDAVKRGNEDDLHELADKDVRLTVGDKEYHGREEIMEYLHEWRKKVDHIDFDSYTVRGNTVEVHFQVHDNGQNEDVVVQVEVHNGRVKTVRYRHK” the protease stability score was 1.72.
“DEEEQDKVRKNIHHNNFDHLVQMADPNAHVKIGDKRIHGREELRKYQEKLKKQADHFSIDDMKVEGNKFKVKNNFKVNGQSFEHDYEATVQNGRLKSATVDARDEEDKKKLNEQMS” gave a protease stability score of 0.451.
“DEEEQEKQAHDFARVFNTGDEEKFKRLMPPDARFRYGDKEYHGMDDLLRMLLEMHKRADHLTLVDVDAHGNHLTIRIKVTVNGSDVTVDITITVDNGRLKSVVVDPRQWQKLRN” gave a protease stability score of 0.066.
Sequence “DEEEQERAMEKLDHAIEKGDPDDAVELLDENADAVIGDKRYHGREAATTFMHELRKQIDHIHIRDMQIDNGRAHIEVDARHNGQERKINVVFVFHNGRATSMENRSE” has a protease stability score of 1.02.
Sequence “DEEEQHKRAREYMQMFEDNDEKNLMHMADENARLVVGDKTYRGKEELSKQVREQKKRVDHNQVHSVRLHNGRVVIDVTLHHNGHREKRIIRVQLRNGRIKSIVYESG” has a protease stability score of 0.037.
For “DEEEQHKTATKILSDFHTGNPDDMRENADEDVTAQVGDKTYTGREEFHKAVKTIVDRVDHLEIKSFDFHNGQLEANFVININGKNEKKKLVMRVENGRVKHMKIDDG”, the protease stability score was -0.221.
With “DEEEQHKVAKKLNEAFQQGDPDRLKQLVDKDARAEVGDTTYHGSQDIREAMQHIKDRVDKIEVKSFSVRNGKVTLSINMEVNGRKVILTVEARVDNGHVEYMRIKYTNEEDREVMDQ” the protease stability score was 0.95.
With “DEEEQKKRAKKQADAMRQGDTDELVKMLRDDVRVKVGDKEVHGREDLKKWAREIKKEVDHIQIRQVQVHNGRIDFHIVVNHNGKNKEVVLVVRVRNGQATDFKLTRK” the protease stability score was 0.051.
Work on “DEEEQKNRAKNAADAFQTGDPDQMVEMVDKDVRVQVGDKRYHGREVARTVLDEMQQHIDHIHVKNYNVSGNTVEIRIKANINGRDVEINIHIEMHNGRVKEVKFNPKVADAAKR” yielded a protease stability score of 0.25.
For “DEEEQKVFEKVQDAIRDGDEDTVKKLMDENAKVTIGDKDLHGSDNIARHVHKLHKDMRISIDIKHIDVTGDKIRVHARVEVDKNGKPKHYDVDFTARAKNGKVKTLNYREDS”, the protease stability score was 0.694.
For “DEEEQMHQANQNLRDAFRTNDPDTWRTLVDENARVRIGDKHVSGREEVKELMEDIAREADHLELRVQSMTVRNGELHVHFTLRADVNGQKREIQVVVVLVVRNGRARISRVEQT”, the protease stability score was 1.15.
“DEEEQNKIAETAAKAVASGDEKRLVDLADKHVKVHYGDKDLRGKEAADTLAHDLKRQVDNIKVDTVHAHNGRANADVEVRVNGKKVRYQVQVVVTNGTIDRVQLDPDMVRDHES” gave a protease stability score of 0.101.
For “DEEEQQDHAHTLKDALTYGNEQEFRHMADENARINYGEFDYHGREQFQDVIRRIMEQADHVRVDHVQVHGEHVDIRLKVKFNGQTQRWVIIVRFHNGRIKHLSADTQ”, the protease stability score was 0.499.
“DEEEQQKNAETADRNVKTGNWEEIKKMVDKDARVKIGDTTLHGREDVSREFKRWREDADHVEMKRVSASNGRAVVEVEYTVNGRKKKFTMIMEMHNGRIKHFRNERS” showed a protease stability score of 0.251.
Sequence “DEEEQQKVADKIVEVLKSGNPDEMMKLADENVRAQVGDKTYHGREELKKWMKEVRDRVDRIRVETWEVHNGTVNIIVRMDVDGQTLTLTITANIHNGRIKQIVIEYRDDDELRKAQK” has a protease stability score of 0.729.
For “DEEEQRKAAHQYRKGDPDEAHHMFDENATVEIGNFHVQGREQVREAFEHMKRRADHREVDDMKIQGDKVQVDFQIVVNGQRVKATLDAKVKNGRAQSVRVEFRDEEDRTRAERWFK”, the protease stability score was 0.042.
In the case of “DEEEQRKTAEDIAQVLRTNNPDTMNKLADKNAKASVGDKTYHGRKELSKWIEEQRRRVDHVDIKRFSVDGNEIIIIVILNHNGQNTRVVMVARVKNGRIQSLWRKSK”, the protease stability score is reported as -0.176.
“DEEERAKNFMKQLIDVAQRGDKENAKRLFDENARVEVGDKTYRGRRRVATFLMELSERADHMEMRIQSFDISGDKFDLVLKVERHHNGRQQSFQLKVVATVRNGNLVIVHVRMG” gave a protease stability score of 2.49.
“DEEERLRTILKLFEEALKHNDEDRLRKLADKDVRMRVGDKEYRGKEKFADFMRKLRTKADKVRIQIKQVNIQGNHNTMDITLVFNVNGNNNRFKVNFVFDIRGDSLKLKSATVK” gave a protease stability score of 1.32.
Work on “DEEERRKAHELVKHNDWDKLMKNAPPDVTARIGDRTVHGMEEQVRIEHNMLRRVDENQLHSVDNSGNQLVVTLHVQINGRRFKFTVKIVIHNGQVTTVKVQARDEKEKRKLTELMG” yielded a protease stability score of 0.566.
In the case of “DEEERRRLAKRVIDAMNTGDPDQVVEQIDPNARVEIGDKVYHGRDKAKKAAEERKRQADHVKLKSLEVHGNKVHARLIFNRNGENRTVLLRIKVSNGKALEIRFDHQ”, the protease stability score is reported as 0.552.
With “DEEERSKLAERLVKAVQNNDEDSLLDNIDKNARVVVGEKTYHGRENARHAMQQFDEDVDHLQVRTFEVHGEHIRIQFEVNINGHTHTVVLDAEVKNGKLTDVKFDPDDMRKATS” the protease stability score was 0.14.
In the case of “DEEESDRLKELFRVMRTGDHKRAENMLDPNARFKVGDKKFEGRHEWQKDIKKTKEESHADIKIKDVHFDNGRVDVTLEMVVLHNGRPKKFRVKFVATIQGEKVKEAHITESQ”, the protease stability score is reported as -0.094.
“DEEEVEEMVDQALTAIRTGDEDTFAHQFDENARMEVGDTTLHGRDEIRKEMKKFRDRADHIRIQDYKVKGNKIVIVFVARFDGRHAQITIVWVFSNGRVKHASINPNQVQEFRK” gave a protease stability score of 0.279.
“DEEEVERIAKKLWKIMETGDEDEARKMVPPDVQARVGDKHISGREQYAKWVREVVKRVDSFRIKSLDAKGDKVNIVFVVHHNGKVEQHHATLVFHNGKLVYRTVKTG” gave a protease stability score of 0.433.
For “DEEEVERVAKTAMEAMKKGNEEELKKLLKEGVEYIMGDNKVHGPEEIQKMVQLVLRVGMRIEFKELRVEGDTATTNVDYQVGDKKVTVQAHAELKGGRIDRVQIDFSDEAKKHVKHG”, the protease stability score was 1.17.
Work on “DEEEVKDLDRRLQEAMKTNDPDQMQRLVDENVTASYGDKEVTGREEFKKNNRELLKRVDHVNIHDVTVSGEEMVLDASVKHDGREHRIRVRAVVRDGRIKSLKIHDG” yielded a protease stability score of 0.494.
“DEEEVKKFKEFLDDEKKGNEERAKKLADPNVNVRVGNRQVDGSDNLQKEIRTQKEQARFDMKVDHVEAHNGRIHLEFKLTVEVDGRPKSDTATADAVVTNGHITSLTVQMSEDQVREMDK” showed a protease stability score of -0.238.
Work on “DEEEVKKQLEKLVKMLVKGNKDEIKKFLDPDVEYKVVDEDFQGQQVAEHAYKKIKKVGARMEVKEVRVEGDTAKATYEFTAGGTTVRAEIEAEVHGGRVKHWQVDLDDTAKELIKKG” yielded a protease stability score of 0.266.
Work on “DEEEVKQAIDRWEQGDPDQLKELVDENAHMVIGDKRLHGRETFEKMIKNLMDQADHITIESVEVQGDKAVMDVVANFNGKTVRYEVEIRIQNGQIKYLQINVTNEHDEHRFDQWLG” yielded a protease stability score of 1.16.
In the case of “DEEEVKRQLDQVAKALLHGDEKQAKDLADPNVSANYGDKKLHGRENFSKWVKKFRHQIDHLELKDIRVNGDRLVIEVQANVNGQDVDVVFNLKLHNGKVKHMSVEYRDEQAKRELKK”, the protease stability score is reported as 0.49.
“DEEEVNKALERIRQVLEDGNPDENMKLMDKDVRVEIGDKTWHGRDEAHKAMRELNENVDHFQFDRLHHEGDRAKIDVHLEDNGKKDRVTFEFKIENGRIQHARVQTS” gave a protease stability score of -0.335.
